According to patent US20230272088A1 (SYNTHEKINE, published 2023):

T1: extracellular domain of hIFNGR1 (human, UniProt P15260 18-245, conjugated to Alexa647 (site not stated))
T1 construct: UniProt P15260 residues 18-245; also called hIFNGR1-ECD; human IFNGR1 ECD
T1 sequence: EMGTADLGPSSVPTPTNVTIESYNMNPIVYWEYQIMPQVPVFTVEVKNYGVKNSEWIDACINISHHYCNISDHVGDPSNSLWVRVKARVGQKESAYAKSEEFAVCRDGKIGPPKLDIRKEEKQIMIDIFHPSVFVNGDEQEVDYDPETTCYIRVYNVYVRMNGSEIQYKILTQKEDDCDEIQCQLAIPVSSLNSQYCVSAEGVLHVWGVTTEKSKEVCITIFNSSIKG

T2: extracellular domain of mIFNGR1 (mouse, UniProt P15261 26-254, conjugated to Alexa647 (site not stated))
T2 construct: Origin and tags of the murine antigen are not described; UniProt P15261 residues 26-254; also called mIFNGR1-ECD; murine IFNGR1 ECD
T2 sequence: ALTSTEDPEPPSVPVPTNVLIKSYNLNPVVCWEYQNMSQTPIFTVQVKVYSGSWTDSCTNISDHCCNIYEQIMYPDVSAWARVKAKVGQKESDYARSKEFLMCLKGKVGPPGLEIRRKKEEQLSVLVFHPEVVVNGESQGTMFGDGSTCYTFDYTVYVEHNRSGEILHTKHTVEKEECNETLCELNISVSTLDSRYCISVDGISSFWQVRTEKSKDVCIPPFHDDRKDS

T3: extracellular domain of hIFNGR2 (human, UniProt P38484 28-247, conjugated to Alexa647 (site not stated))
T3 construct: also called hIFNGR2-ECD; human IFNGR2 ECD
T3 sequence: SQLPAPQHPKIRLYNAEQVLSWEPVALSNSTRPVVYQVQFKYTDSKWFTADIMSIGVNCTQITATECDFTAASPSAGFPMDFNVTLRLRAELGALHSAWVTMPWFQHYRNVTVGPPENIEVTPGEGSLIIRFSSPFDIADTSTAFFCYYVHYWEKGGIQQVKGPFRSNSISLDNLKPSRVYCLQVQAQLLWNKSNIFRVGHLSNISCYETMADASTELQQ


Assays:
[1] = molecular target: T1, extracellular domain of hIFNGR1; assay: flow cytometry, yeast-displayed VHH, 100 nM Alexa647-conjugated antigen
Procedure: (§1) Binding of individual VHH to human and murine antigen was tested by flow cytometry. Briefly, 2E5 yeast cells expressing a single sdAb clone were added to each well of a 96 well plate. The first plate was incubated with 100 nM of human antigen conjugated to Alexa647 whereas the second plate was incubated with 100 nM of murine antigen conjugated to Alexa647. Yeast cells were washed 3 times with PBS containing 1% bovine serum albumin. Yeast cells were analyzed using flow cytometry and clones showing a mean fluorescence intensity of greater than 1000 were considered as binding molecules. Specificity of sdAbs was confirmed by incubating yeast cells with a irrelevant protein conjugated to Alexa647. Positive clones were sequenced, and sequences analyzed to identify unique clonotypes.

[2] = molecular target: T2, extracellular domain of mIFNGR1; assay: as above
Procedure: as §1

[3] = molecular target: T3, extracellular domain of hIFNGR2; assay: flow cytometry
[4] = molecular target: T1, extracellular domain of hIFNGR1; assay: flow cytometry
[5] = molecular target: T2, extracellular domain of mIFNGR1; assay: flow cytometry

| Binder | binding result [1] | binding result [2] | binding result [3] | binding result [4] | binding result [5] |
| --- | --- | --- | --- | --- | --- |
| DR911 (VHH, also called anti-IFNGR1 sdAb VHH DR911) VHH: EVQLVESGGALVQAGGSLRLSCTVSGRSFSTYAMAWFRRAPGKERELVSAITVGGGSTYYVDSVKGRFTISRENAKNTLYLQMNNLKPEDTAIYICAARDYRRRSYAPEAEQYDYWGQGTQVTVSS | binds | binds |  |  |  |
| DR953 (VHH, also called anti-IFNGR2 sdAb VHH DR953) VHH: QVQLVESGGGLVQAGDSLRLSCAASGPTFSTYAMAWFRQAPGKEREFVAAITQSGRTTYYEDSVKGRFTISKDNAKNTLYLQMNSLQPEDTAVYYCAARDLWSDSPDDWRIYSFWGQGTQVTVSS |  |  | binds |  |  |
| DR903 (VHH, also called anti-IFNGR1 sdAb VHH DR903) VHH: EVQLVESGGGLVQAGGSLRLSCAASGRIASDYTRGWFRQAPGKEREFVAAIIRSVGDSYYADSVKGRFTISIDNAENTVYLQMNSLKPEDTAVYYCAVGGHLYYGSRWRYPASYDYWGQGTQVTVSS |  | binds |  | binds |  |
| DR926 (VHH, also called anti-IFNGR1 sdAb VHH DR926) VHH: EVQLVESGGGLVQAGGSLRLSCAASGRTFSRYAMNWFRQAPGKEREFVAAISWSSGNTYVADSVKGRFTISRDNAKNTMYLQMNNLAPEDTAVYYCAATTIATMSDENTYWGQGTQVTVSS | binds | binds |  |  |  |
| DR925 (VHH, also called anti-IFNGR1 sdAb VHH DR925) VHH: EVQLVESGGGLVQAGGSLVLSCAASGRTFSRYAMGWFRQAPGKEREFVAAISIGGGSADYADTVKGRFTISRNNAKNTMYLQMNSLKPEDTAVYYCAARTPRPSSSYFTPQDYEYWGQGTLVTVSS | binds | binds |  |  |  |
| DR909 (VHH, also called anti-IFNGR1 sdAb VHH DR909) VHH: EVQLVESGGGLVQAGGSLRLSCAASGRTFGTSFGALSMGWFRQAPGKEREFVAAITRNTGRTFYADSVKDRFTISRDNAKNTASLQMNSLEPEDTAVYICAATNSYDDLRRSYAYNYWGQGTQVTVSS | binds | binds |  |  |  |
| DR906 (VHH, also called anti-IFNGR1 sdAb VHH DR906) VHH: EVQLVESGGGLVQAGGSLRLSCAASGSTFSTYVMGWFRQAPGKEREFVAAISRSGGTTTYADSVKGRFDISRDNGKNTLFLQMNSLIPEDTAAYYCAARAGPAIGRTANDYHSWGQGTLVTVSS | binds | binds |  |  |  |
| DR907 (VHH, also called anti-IFNGR1 sdAb VHH DR907) VHH: EVQLVESGGGLVQAGGSLRLSCAASGRTFSNYAMGWFRQAPGNEREFVAAINWNIGSTYYADSVKGRFTISRDNAKNTVYLQMNSLKPEDTAVYYCGAVWPTGRLRVDSEYDYWGQGTQVTVSS | binds |  |  |  | binds |
| DR920 (VHH, also called anti-IFNGR1 sdAb VHH DR920) VHH: EVQLVESGGGLVQAGGSLRLSCAASGRSFANYAMGWFRQAPGKERETVAAISRGGGSTWYADSVKGRFTISKDNAKNTVYLQMNSLKPEDTAIYYCAARSYSGSYTYSFGEYDYWGQGTQVTVSS | binds | binds |  |  |  |
| DR914 (VHH, also called anti-IFNGR1 sdAb VHH DR914) VHH: EVQLVESGGGLVQAGGSLTLSCVASGRAFSNSAMAWFRQTPGKEREFVSAISRGGGSTDYADSVKGRFTISKDNAKNTVYLQMNSLKPEDTAVYYCAMRYYSGRYYESLEYDYWGQGTQVTVSS | binds | binds |  |  |  |

The remaining lines, values ahead:

| binding result [1] | binding result [2] | binding result [3] | binding result [4] | binding result [5] | Binder |
| --- | --- | --- | --- | --- | --- |
| binds | binds |  |  |  | DR915 (VHH, also called anti-IFNGR1 sdAb VHH DR915) VHH: EVQLVESGGGLVQAGGSLRLSCAAARRTLHNFAMAWFRQAPGKEREFVAAISKGGGSADYADSVKGRFTISRDNAKNTVYLQMNSLKPEDTAVYYCAANDLASYSDSSYTSTSRYDYWGQGTQVTVSS |
| binds | binds |  |  |  | DR922 (VHH, also called anti-IFNGR1 sdAb VHH DR922) VHH: QVQLVESGGGLVRAGGSLRLSCAASGSITSINTMGWFRQAPGKQRELVAAITSGGSTNYADSVKGRFTISRDNARNTVYLQMYSLKPEDTAVYYCEADSMYFRGQGTQVTVSS |
| binds | binds |  |  |  | DR910 (VHH, also called anti-IFNGR1 sdAb VHH DR910) VHH: EVQLVESGGGLVQTGGSLRLSCAASGRTFSSYAMAWFRQAPGKEREFVAAISILGGSADYEDSVQGRFTISRDNAKNTMYLQMNSLKPEDTAVYYCAARRPAPSDSYWSSTSYAYWGQGTLVTVSS |
| binds | binds |  |  |  | DR924 (VHH, also called anti-IFNGR1 sdAb VHH DR924) VHH: QVQLVESGGGLVQAGGSLRLSCTASGRTFSRYAMGWFRQAPGKEREFVATISRSGGTTSYANSVKGRFTISRDNAKNTVYLQMNSLKTEDTAVYNCAARDGPAMGVFGSDYDYWGQGTLVTVSS |
| binds | binds |  |  |  | DR912 (VHH, also called anti-IFNGR1 sdAb VHH DR912) VHH: EVQLVESGGGLVQAGGSLRLSCAPSGRTFSSYAMAWFRQPPGKEREFVAAITVSGASTYYADSVKGRFTISRDNAKNSMYLQMNSLKPEDTAVYYCAAGGPGTIFPDYDYWGQGTQVTVSS |
|  |  | binds |  |  | DR958 (VHH, also called anti-IFNGR2 sdAb VHH DR958) VHH: QVQLVESGGGLVQAGDSLTLSCTASGRTFSGYNMGWFRQAPGKERDFVAAINWIGGATYYADSVKGRFTISRDNAKNTVYLQMNSLKPEDTAVYYCHRYSEKFYSGKDYYTRDYDYWGQGTQVTVSS |
| binds | binds |  |  |  | DR923 (VHH, also called anti-IFNGR1 sdAb VHH DR923) VHH: QVQLVESGGGLVQAGGSLRLSCAASRRTFMTYAMGWFRQAPGKEREFVAAISWSSGSTYYADSVKGRFTISRDNAKNTMYLQMNSLKPEDTAVYYCTASSIATMYGPNDYAGQGTLVTVSS |
| binds | binds |  |  |  | DR905 (VHH, also called anti-IFNGR1 sdAb VHH DR905) VHH: EVQLVESGGGLVQAGGSLRLSCVASGRTFTGYAMGWFRQAPGKEREFVAVITWSGATTYYSASVKGRFTLSRDNAKNTVYLQMNSLKSEDTAVYYCAIRIRDGVSPENPNEYGYWGQGTQVTVSS |
| binds | binds |  |  |  | DR918 (VHH, also called anti-IFNGR1 sdAb VHH DR918) VHH: EVQLVESGGGLVQAGGSLRLSCATSGLTDSTYGMAWFRQAPGKEREFVAAISRAGGSADHADSVKGRFTVSRDNAKKMVYLQMNSLKPEDTAVYYCASGRSYSSPYDYFNALAYSYWGQGTQVTVSS |
| binds | binds |  |  |  | DR917 (VHH, also called anti-IFNGR1 sdAb VHH DR917) VHH: EVQLVESGGGLVQAGGSLRLSCAASGRTFSGYNMGWFRQAPGKEREFVAAIAWAGSRTYYTDSVKGRFTISRDNAKNTMYLQMNTLRPEDTAVYYCAAHDETYYRLDRVDLYTHWGQGTLVTVSS |
| binds | binds |  |  |  | DR916 (VHH, also called anti-IFNGR1 sdAb VHH DR916) VHH: EVQLVESGGGLVQPGGSLRLSCTASGRPRTTYAMGWFRQAPGKEREIVAAISKAGGSTYVADSAKGRFAISKDNAKNTVYLQMNSLKPEDTAVYYCAARAGFAAQIFEYDYWGQGTLVTVSS |
| binds | binds |  |  |  | DR913 (VHH, also called anti-IFNGR1 sdAb VHH DR913) VHH: EVQLVESGGGLVQAGGFLRLSCAASGRTFSSYAMGWFRQIPGKERELVAAISSWSGGSTYYADSVKGRFTISRDNAKNTVYLQMLSLKPEDTAVYYCTTGDYYSDYFKYDNENWGKGTQVTVSS |
|  |  | binds |  |  | DR956 (VHH, also called anti-IFNGR2 sdAb VHH DR956) VHH: EVQLVESGGGLVQAGGSLRLSCAASGRTFSSLAMAWFRQAPGKEREFVAATTILGGSADYGDPVKGRFTISRDNAKNTVYLQMNSLKPEDTAVYYCTGRRPAPSDNYWSPASYAYWGQGTQVTVSS |
